As a reminder, the Kd is the constant that tells how readily two partners part at equilibrium. A lower Kd goes with a tighter complex.

We go through 5 molecules from patent publication US20230151095A1 (published 2023).

To fix the notation:
B1: XENP41032 (antibody)
chain 1: EVQLLESGGGLVQPGGSLRLSCAVSGFSLSSYGVIWVRQAPGKGLEYVSWVSSGGSTNYASSVKGRFTISRDTSKNTVYLQMNSLRAEDTAVYFCARGATNSGTDIWGPGTLVTVSSASTKGPSVFPLAPSSKSTSGGTAALGCLVKDYFPEPVTVSWNSGALTSGVHTFPAVLQSSGLYSLSSVVTVPSSSLGTQTYICNVNHKPSDTKVDKKVEPKSCDKTHTCPPCPAPELLGGPDVFLFPPKPKDTLMISRTPEVTCVVVDVSHEDPEVKFNWYVDGVEVHNAKTKPREEEYNSTYRVVSVLTVLHQDWLNGKEYKCKVSNKALPAPEEKTISKAKGQPREPQVYTLPPSREEMTKNQVSLTCDVSGFYPSDIAVEWESDGQPENNYKTTPPVLDSDGSFFLYSKLTVDKSRWEQGDVFSCSVMHEALHNHYTQKSLSLSPGK
chain 2: EVQLLESGGGLVQPGGSLRLSCAVSGFSLSSYGVIWVRQAPGKGLEYVSWVSSGGSTNYASSVKGRFTISRDTSKNTVYLQMNSLRAEDTAVYFCARGATNSGTDIWGPGTLVTVSSGKPGSGKPGSGKPGSGKPGSDIVMTQSPSSLSASVGDRVTITCRASQSINSWLSWYQQKPGKPPKLLIYGASNLASGVPSRFKGSGSGTDFTLTISSLQPEDFATYYCQNNYGIIAAGATFGGGTKVEIKEPKSSDKTHTCPPCPAPELLGGPSVFLFPPKPKDTLMISRTPEVTCVVVDVSHEDPEVKFNWYVDGVEVHNAKTKPREEQYNSTYRVVSVLTVLHQDWLNGKEYKCKVSNKALPAPEEKTISKAKGQPREPQVYTLPPSREQMTKNQVKLTCLVKGFYPSDIAVEWESNGQPENNYKTTPPVLDSDGSFFLYSKLTVDKSRWQQGNVFSCSVMHEALHNHYTQKSLSLSPGK
chain 3: DIVMTQSPSSLSASVGDRVTITCRASQSINSWLSWYQQKPGKPPKLLIYGASNLASGVPSRFKGSGSGTDFTLTISSLQPEDFATYYCQNNYGIIAAGATFGGGTKVEIKRTVAAPSVFIFPPSDEQLKSGTASVVCLLNNFYPREAKVQWKVDNALQSGNSQESVTEQDSKDSTYSLSSTLTLSKADYEKHKVYACEVTHQGLSSPVTKSFNRGEC
B2: XENP41036 (antibody)
chain 1: EVQLLESGGGLVQPGGSLRLSCAVSGFSLSSYGVIWVRQAPGKGLEYVSWVSSGGSTNYASSVKGRFTISRDTSKNTVYLQMNSLRAEDTAVYFCARGATNSGTDIWGPGTLVTVSSASTKGPSVFPLAPSSKSTSGGTAALGCLVKDYFPEPVTVSWNSGALTSGVHTFPAVLQSSGLYSLSSVVTVPSSSLGTQTYICNVNHKPSDTKVDKKVEPKSCDKTHTCPPCPAPELLGGPSVFLFPPKPKDTLMISRTPEVTCVVVDVSHEDPEVKFNWYVDGVEVHNAKTKPREEEYNSTYRVVSVLTVLHQDWLNGKEYKCKVSNKALPAPEEKTISKAKGQPREPQVYTLPPSREEMTKNQVSLTCDVSGFYPSDIAVEWESDGQPENNYKTTPPVLDSDGSFFLYSKLTVDKSRWEQGDVFSCSVMHEALHNHYTQKSLSLSPGK
chain 2: EVQLLESGGGLVQPGGSLRLSCAVSGFSLSSYGVIWVRQAPGKGLEYVSWVSSGGSTNYASSVKGRFTISRDTSKNTVYLQMNSLRAEDTAVYFCARGATNSGTDIWGPGTLVTVSSGKPGSGKPGSGKPGSGKPGSDIVMTQSPSSLSASVGDRVTITCRASQSINSWLSWYQQKPGKPPKLLIYGASNLASGVPSRFKGSGSGTDFTLTISSLQPEDFATYYCQNNYGIIAAGATFGGGTKVEIKEPKSSDKTHTCPPCPAPELLGGPDVFLFPPKPKDTLMISRTPEVTCVVVDVSHEDPEVKFNWYVDGVEVHNAKTKPREEQYNSTYRVVSVLTVLHQDWLNGKEYKCKVSNKALPAPIEKTISKAKGQPREPQVYTLPPSREQMTKNQVKLTCLVKGFYPSDIAVEWESNGQPENNYKTTPPVLDSDGSFFLYSKLTVDKSRWQQGNVFSCSVMHEALHNHYTQKSLSLSPGK
chain 3: DIVMTQSPSSLSASVGDRVTITCRASQSINSWLSWYQQKPGKPPKLLIYGASNLASGVPSRFKGSGSGTDFTLTISSLQPEDFATYYCQNNYGIIAAGATFGGGTKVEIKRTVAAPSVFIFPPSDEQLKSGTASVVCLLNNFYPREAKVQWKVDNALQSGNSQESVTEQDSKDSTYSLSSTLTLSKADYEKHKVYACEVTHQGLSSPVTKSFNRGEC
B3: XENP41026 (antibody)
chain 1: EVQLLESGGGLVQPGGSLRLSCAVSGFSLSSYGVIWVRQAPGKGLEYVSWVSSGGSTNYASSVKGRFTISRDTSKNTVYLQMNSLRAEDTAVYFCARGATNSGTDIWGPGTLVTVSSASTKGPSVFPLAPSSKSTSGGTAALGCLVKDYFPEPVTVSWNSGALTSGVHTFPAVLQSSGLYSLSSVVTVPSSSLGTQTYICNVNHKPSDTKVDKKVEPKSCDKTHTCPPCPAPELLGGPSVFLFPPKPKDTLMISRTPEVTCVVVDVSHEDPEVKFNWYVDGVEVHNAKTKPREEEYNSTYRVVSVLTVLHQDWLNGKEYKCKVSNKALPAPIEKTISKAKGQPREPQVYTLPPSREEMTKNQVSLTCDVSGFYPSDIAVEWESDGQPENNYKTTPPVLDSDGSFFLYSKLTVDKSRWEQGDVFSCSVMHEALHNHYTQKSLSLSPGK
chain 2: EVQLLESGGGLVQPGGSLRLSCAVSGFSLSSYGVIWVRQAPGKGLEYVSWVSSGGSTNYASSVKGRFTISRDTSKNTVYLQMNSLRAEDTAVYFCARGATNSGTDIWGPGTLVTVSSGKPGSGKPGSGKPGSGKPGSDIVMTQSPSSLSASVGDRVTITCRASQSINSWLSWYQQKPGKPPKLLIYGASNLASGVPSRFKGSGSGTDFTLTISSLQPEDFATYYCQNNYGIIAAGATFGGGTKVEIKEPKSSDKTHTCPPCPAPELLGGPDVFLFPPKPKDTLMISRTPEVTCVVVDVSHEDPEVKFNWYVDGVEVHNAKTKPREEQYNSTYRVVSVLTVLHQDWLNGKEYKCKVSNKALPAPIEKTISKAKGQPREPQVYTLPPSREQMTKNQVKLTCLVKGFYPSDIAVEWESNGQPENNYKTTPPVLDSDGSFFLYSKLTVDKSRWQQGNVFSCSVMHEALHNHYTQKSLSLSPGK
chain 3: DIVMTQSPSSLSASVGDRVTITCRASQSINSWLSWYQQKPGKPPKLLIYGASNLASGVPSRFKGSGSGTDFTLTISSLQPEDFATYYCQNNYGIIAAGATFGGGTKVEIKRTVAAPSVFIFPPSDEQLKSGTASVVCLLNNFYPREAKVQWKVDNALQSGNSQESVTEQDSKDSTYSLSSTLTLSKADYEKHKVYACEVTHQGLSSPVTKSFNRGEC
B4: XENP41024 (antibody)
chain 1: EVQLLESGGGLVQPGGSLRLSCAVSGFSLSSYGVIWVRQAPGKGLEYVSWVSSGGSTNYASSVKGRFTISRDTSKNTVYLQMNSLRAEDTAVYFCARGATNSGTDIWGPGTLVTVSSASTKGPSVFPLAPSSKSTSGGTAALGCLVKDYFPEPVTVSWNSGALTSGVHTFPAVLQSSGLYSLSSVVTVPSSSLGTQTYICNVNHKPSDTKVDKKVEPKSCDKTHTCPPCPAPELLGGPSVFLFPPKPKDTLMISRTPEVTCVVVDVSHEDPEVKFNWYVDGVEVHNAKTKPREEEYNSTYRVVSVLTVLHQDWLNGKEYKCKVSNKALPAPEEKTISKAKGQPREPQVYTLPPSREEMTKNQVSLTCDVSGFYPSDIAVEWESDGQPENNYKTTPPVLDSDGSFFLYSKLTVDKSRWEQGDVFSCSVMHEALHNHYTQKSLSLSPGK
chain 2: EVQLLESGGGLVQPGGSLRLSCAVSGFSLSSYGVIWVRQAPGKGLEYVSWVSSGGSTNYASSVKGRFTISRDTSKNTVYLQMNSLRAEDTAVYFCARGATNSGTDIWGPGTLVTVSSGKPGSGKPGSGKPGSGKPGSDIVMTQSPSSLSASVGDRVTITCRASQSINSWLSWYQQKPGKPPKLLIYGASNLASGVPSRFKGSGSGTDFTLTISSLQPEDFATYYCQNNYGIIAAGATFGGGTKVEIKEPKSSDKTHTCPPCPAPELLGGPSVFLFPPKPKDTLMISRTPEVTCVVVDVSHEDPEVKFNWYVDGVEVHNAKTKPREEQYNSTYRVVSVLTVLHQDWLNGKEYKCKVSNKALPAPEEKTISKAKGQPREPQVYTLPPSREQMTKNQVKLTCLVKGFYPSDIAVEWESNGQPENNYKTTPPVLDSDGSFFLYSKLTVDKSRWQQGNVFSCSVMHEALHNHYTQKSLSLSPGK
chain 3: DIVMTQSPSSLSASVGDRVTITCRASQSINSWLSWYQQKPGKPPKLLIYGASNLASGVPSRFKGSGSGTDFTLTISSLQPEDFATYYCQNNYGIIAAGATFGGGTKVEIKRTVAAPSVFIFPPSDEQLKSGTASVVCLLNNFYPREAKVQWKVDNALQSGNSQESVTEQDSKDSTYSLSSTLTLSKADYEKHKVYACEVTHQGLSSPVTKSFNRGEC
B5: XENP41029 (antibody)
chain 1: EVQLLESGGGLVQPGGSLRLSCAVSGFSLSSYGVIWVRQAPGKGLEYVSWVSSGGSTNYASSVKGRFTISRDTSKNTVYLQMNSLRAEDTAVYFCARGATNSGTDIWGPGTLVTVSSASTKGPSVFPLAPSSKSTSGGTAALGCLVKDYFPEPVTVSWNSGALTSGVHTFPAVLQSSGLYSLSSVVTVPSSSLGTQTYICNVNHKPSDTKVDKKVEPKSCDKTHTCPPCPAPELLGGPDVFLFPPKPKDTLMISRTPEVTCVVVDVSHEDPEVKFNWYVDGVEVHNAKTKPREEEYNSTYRVVSVLTVLHQDWLNGKEYKCKVSNKALPAPIEKTISKAKGQPREPQVYTLPPSREEMTKNQVSLTCDVSGFYPSDIAVEWESDGQPENNYKTTPPVLDSDGSFFLYSKLTVDKSRWEQGDVFSCSVMHEALHNHYTQKSLSLSPGK
chain 2: not shown
chain 3: DIVMTQSPSSLSASVGDRVTITCRASQSINSWLSWYQQKPGKPPKLLIYGASNLASGVPSRFKGSGSGTDFTLTISSLQPEDFATYYCQNNYGIIAAGATFGGGTKVEIKRTVAAPSVFIFPPSDEQLKSGTASVVCLLNNFYPREAKVQWKVDNALQSGNSQESVTEQDSKDSTYSLSSTLTLSKADYEKHKVYACEVTHQGLSSPVTKSFNRGEC

Sequence of CD16 (P08637 17-208): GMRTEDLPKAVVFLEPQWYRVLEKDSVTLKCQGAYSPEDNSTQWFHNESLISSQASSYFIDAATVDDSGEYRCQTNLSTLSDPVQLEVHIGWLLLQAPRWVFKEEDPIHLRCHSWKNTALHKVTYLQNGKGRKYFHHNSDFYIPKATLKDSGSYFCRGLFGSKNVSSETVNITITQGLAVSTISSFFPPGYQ

This experiment has as its target CD16 (UniProt P08637 17-208).
Turning to B1, the Kd is 60.2 nM.

With B2, the Kd worked out at 104 nM.

Turning to B3, binding was characterised by a dissociation constant (Kd) of 219 nM.

For the molecule B4, binding was put at a Kd of 120 nM.

As to B5, the Kd was found to be 229 nM.
